From patent US20160272716A1 (AGENSYS, published 2016)
Changes are numbered by the printed parent chain. Each block holds one molecule with its values, some of them ahead of it.

Legend:
[1] = target: T1, human FLT3 expressed on the cell surface (human, UniProt P36888 27-993); experiment: FACS, biotinylated isotype control 10 ug/ml, Streptavidin-PE, REH cells (ALL)
T1 construct: FLT3 on human leukemia cell lines, on recombinant cells and on primary blood cells; also called Flk2; STK1

[2] = target: T1, human FLT3 expressed on the cell surface; experiment: FACS, biotinylated isotype control 10 ug/ml, Streptavidin-PE, SKM-1 cells (AML)
[3] = target: T1, human FLT3 expressed on the cell surface; experiment: FACS, biotinylated isotype control 10 ug/ml, Streptavidin-PE, MOLM-13 cells (AML)
[4] = target: T1, human FLT3 expressed on the cell surface; experiment: FACS, biotinylated isotype control 10 ug/ml, Streptavidin-PE, MONOMAC-1 cells (AML)
[5] = target: T1, human FLT3 expressed on the cell surface; experiment: FACS, biotinylated isotype control 10 ug/ml, Streptavidin-PE, NALM-1 cells (CML)
[6] = target: T1, human FLT3 expressed on the cell surface; experiment: FACS, biotinylated isotype control 10 ug/ml, Streptavidin-PE, THP-1 cells (AML)
[7] = target: T1, human FLT3 expressed on the cell surface; experiment: FACS, biotinylated isotype control 10 ug/ml, Streptavidin-PE, SEM cells (B-ALL)
[8] = target: T1, human FLT3 expressed on the cell surface; experiment: FACS, biotinylated isotype control 10 ug/ml, Streptavidin-PE, PL-21 cells (AML)
[9] = target: T1, human FLT3 expressed on the cell surface; experiment: FACS, biotinylated isotype control 10 ug/ml, Streptavidin-PE, MV-4-11 cells (AML)
[10] = target: T1, human FLT3 expressed on the cell surface; experiment: FACS, biotinylated isotype control 10 ug/ml, Streptavidin-PE, OCI-AML2 cells (AML)
[11] = target: T1, human FLT3 expressed on the cell surface; experiment: FACS, biotinylated isotype control 10 ug/ml, Streptavidin-PE, RS4;11 cells (B-ALL)
[12] = target: T1, human FLT3 expressed on the cell surface; experiment: FACS, biotinylated isotype control 10 ug/ml, Streptavidin-PE, EOL-1 cells (AML)
[13] = target: T1, human FLT3 expressed on the cell surface; experiment: FACS on MOLM-13 cells: 30 min pre-incubation with human FLT3 ligand, then biotinylated antibody, streptavidin-PE
Experimental: (§1) In another experiment, The ability of anti-FLT3 antibodies, CHv62.21 and v62-1b37.1, to bind to FLT3 expressed on the surface of human leukemia MOLM-13 cell line was evaluated in the presence of human FLT3 Ligand (hFL). Isotype control antibody, AGS91.1-pAF, was used as a negative control.
(§2) Briefly, The MOLM-13 cells were seeded at a density of 50,000 cells per well onto round-bottom 96 well plates. The plates were washed one time with 150 μl per well of PBS. The cells were Fc blocked (20 μg/mL) at a volume of 50 μl per well in FACS buffer (PBS+2% FBS+0.1% sodium azide) to reduce non-specific binding. Cells were incubated at 4° C. for 15 minutes. Human FLT3 Ligand was added to appropriate wells at 100 ng/mL and serially diluted 1:2 across the plate for a total of 11 points. Cells were incubated for 30 minutes at 4° C. prior to adding biotinylated FLT3 antibodies. After incubation, the biotinylated anti-FLT3 antibodies and isotype control antibody were prepared in FACS buffer at 10 μg/mL and 1 μg/mL and 25 μl was added to wells and incubated for 1 hour at 4° C. Cells were washed two times with FACS buffer and Streptavidin-PE (Jackson immune) was added 100 μl per well and incubated for 1 hour at 4° C. Cells were washed two times with FACS buffer and read on the Attune Cytometer (Life technologies) and analyzed in FlowJo (Tree Star) software.

[14] = target: T1, human FLT3 expressed on the cell surface; experiment: FACS, biotinylated antibody 10 ug/ml, Streptavidin-PE, PL-21 cells (AML)
Experimental: (§3) CHv62.21 was tested for binding to AML and B-ALL cell lines grown in vitro. (See, FIG. 15A-M). Briefly, CHv62.21 and an isotype matched control antibody were biotinylated using NHS LC biotin. In vitro, exponentially grown cancer cell lines were used for all experiments. Cells were harvested by and washed by centrifugation. Cells were Fc blocked to reduce non-specific binding. Antibodies were diluted to 10 ug/ml final concentration and co-incubated with cells at 4° C. for 1 hour. At the end of the incubation, cells were washed and incubated with secondary detection Streptavidin-PE antibody at a final 1:200 (2.5 ug/ml) dilution for 1 hour at 4° C. After washing un-bound secondary antibody, cells were analyzed by FACS and geometric mean fluorescence was determined and reported. Fluorescence ratio was calculated as follows: Geo mean cHv62.21/Geo mean isotype control=MFR, a measure of fold expression above isotype control.
(§4) Geometric Mean values and Mean Florescence ratios (MFR) values were obtained (Table VI) and histograms are shown (FIG. 15A-M).

[15] = target: T1, human FLT3 expressed on the cell surface; experiment: FACS, biotinylated antibody 10 ug/ml, Streptavidin-PE, SKM-1 cells (AML)
Experimental: as §3, §4

[16] = target: T1, human FLT3 expressed on the cell surface; experiment: FACS, biotinylated antibody 10 ug/ml, Streptavidin-PE, REH cells (ALL)
Experimental: as §3, §4

[17] = target: T1, human FLT3 expressed on the cell surface; experiment: FACS, biotinylated antibody 10 ug/ml, Streptavidin-PE, OCI-AML2 cells (AML)
Experimental: as §3, §4

[18] = target: T1, human FLT3 expressed on the cell surface; experiment: FACS, biotinylated antibody 10 ug/ml, Streptavidin-PE, MOLM-13 cells (AML)
Experimental: as §3

[19] = target: T1, human FLT3 expressed on the cell surface; experiment: FACS, biotinylated antibody 10 ug/ml, Streptavidin-PE, MONOMAC-1 cells (AML)
Experimental: as §3, §4

[20] = target: T1, human FLT3 expressed on the cell surface; experiment: FACS, biotinylated antibody 10 ug/ml, Streptavidin-PE, NALM-1 cells (CML)
Experimental: as §3

[21] = target: T1, human FLT3 expressed on the cell surface; experiment: FACS, biotinylated antibody 10 ug/ml, Streptavidin-PE, THP-1 cells (AML)
Experimental: as §3, §4

[22] = target: T1, human FLT3 expressed on the cell surface; experiment: FACS, biotinylated antibody 10 ug/ml, Streptavidin-PE, SEM cells (B-ALL)
Experimental: as §3

[23] = target: T1, human FLT3 expressed on the cell surface; experiment: FACS, biotinylated antibody 10 ug/ml, Streptavidin-PE, MV-4-11 cells (AML)
Experimental: as §3, §4

[24] = target: T1, human FLT3 expressed on the cell surface; experiment: FACS, biotinylated antibody 10 ug/ml, Streptavidin-PE, EOL-1 cells (AML)
Experimental: as §3, §4

[25] = target: T1, human FLT3 expressed on the cell surface; experiment: FACS, biotinylated antibody 10 ug/ml, Streptavidin-PE, RS4;11 cells (B-ALL)
Experimental: as §3, §4

[26] = target: T1, human FLT3 expressed on the cell surface; experiment: flow cytometry, cell surface FLT3
[27] = target: T1, human FLT3 expressed on the cell surface; experiment: competition FACS on MOLM-13 cells: FL titrated 0.1 to 100 ng/ml, 30 min pre-incubation; displaced antibody: biotinylated cHv62-1b37.1 at 10 ug/ml
Experimental: as §1, §2

T1 sequence (P36888 27-993 T227M limits assumed): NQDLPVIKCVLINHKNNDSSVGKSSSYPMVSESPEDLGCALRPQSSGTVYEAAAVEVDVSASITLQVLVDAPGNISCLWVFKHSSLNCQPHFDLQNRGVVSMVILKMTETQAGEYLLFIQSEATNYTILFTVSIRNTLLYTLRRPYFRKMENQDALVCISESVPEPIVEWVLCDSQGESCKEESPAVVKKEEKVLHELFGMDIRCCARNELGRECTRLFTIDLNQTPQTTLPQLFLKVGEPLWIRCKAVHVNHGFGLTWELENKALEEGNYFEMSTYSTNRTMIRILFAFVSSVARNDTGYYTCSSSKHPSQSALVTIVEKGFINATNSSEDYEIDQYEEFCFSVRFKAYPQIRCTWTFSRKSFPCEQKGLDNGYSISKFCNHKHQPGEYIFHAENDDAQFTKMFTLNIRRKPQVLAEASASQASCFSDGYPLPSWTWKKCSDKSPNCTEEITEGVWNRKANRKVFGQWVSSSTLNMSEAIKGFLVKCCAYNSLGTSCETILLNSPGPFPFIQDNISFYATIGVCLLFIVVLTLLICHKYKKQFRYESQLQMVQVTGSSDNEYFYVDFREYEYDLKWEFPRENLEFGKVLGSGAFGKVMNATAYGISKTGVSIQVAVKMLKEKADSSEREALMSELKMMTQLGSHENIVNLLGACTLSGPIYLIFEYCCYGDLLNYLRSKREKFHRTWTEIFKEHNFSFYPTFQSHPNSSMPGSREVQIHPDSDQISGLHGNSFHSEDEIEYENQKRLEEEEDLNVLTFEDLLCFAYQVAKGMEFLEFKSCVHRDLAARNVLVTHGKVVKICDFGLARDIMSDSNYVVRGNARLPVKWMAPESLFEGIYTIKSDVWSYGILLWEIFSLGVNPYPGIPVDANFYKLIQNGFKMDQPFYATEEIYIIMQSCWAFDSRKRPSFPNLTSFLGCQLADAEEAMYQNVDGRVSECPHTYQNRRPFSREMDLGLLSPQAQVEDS

- Geometric Mean fluorescence [1]: 235
- Geometric Mean fluorescence [2]: 445
- Geometric Mean fluorescence [3]: 320
- Geometric Mean fluorescence [4]: 338
- Geometric Mean fluorescence [5]: 262
- Geometric Mean fluorescence [6]: 474
- Geometric Mean fluorescence [7]: 212
- Geometric Mean fluorescence [8]: 570
- Geometric Mean fluorescence [9]: 366
- Geometric Mean fluorescence [10]: 329
- Geometric Mean fluorescence [11]: 213
- Geometric Mean fluorescence [12]: 281
Molecule: isotype matched control antibody (Example 9)

- binding result [13]: binds
B1: v62-1b37.1 (antibody, human IgG1, kappa, V domains shown)
VH: EVQLVESGGGVVRPGGSLRLSCAASGFTFDDYGMSWVRQAPGKGLEWVSGINWNGGSTGYADSVKGRFTISRDDAKNSLYLQMNSLRAEDTALYHCARDGYTYGPFDNWGQGTLVTVSS
VL: DIQMTQSPSSLSASVGDRVTITCRASQGIRNDLGWYQQKPGKAPKRLIYAASSLQSGVPSRFSGSGSGTEFTLTISSLQPEDFATYYCLQHNSYPYTFGQGTKLEIKR
modifications: biotinylated in the MOLM-13 FACS
notes: also called cHv62-1b37.1

- MFR (Geo mean cHv62.21/Geo mean isotype control) [14]: 7 fold
- MFR (Geo mean cHv62.21/Geo mean isotype control) [15]: 7 fold
- MFR (Geo mean cHv62.21/Geo mean isotype control) [16]: 69 fold
- MFR (Geo mean cHv62.21/Geo mean isotype control) [17]: 17 fold
- MFR (Geo mean cHv62.21/Geo mean isotype control) [18]: 44 fold
- MFR (Geo mean cHv62.21/Geo mean isotype control) [19]: 34 fold
- MFR (Geo mean cHv62.21/Geo mean isotype control) [20]: 49 fold
- MFR (Geo mean cHv62.21/Geo mean isotype control) [21]: 42 fold
- MFR (Geo mean cHv62.21/Geo mean isotype control) [22]: 623 fold
- MFR (Geo mean cHv62.21/Geo mean isotype control) [23]: 8 fold
- MFR (Geo mean cHv62.21/Geo mean isotype control) [24]: 50 fold
- MFR (Geo mean cHv62.21/Geo mean isotype control) [25]: 86 fold
B2: CHv62.21 MAb (antibody, human IgG1, kappa, V domains shown)
VH: EVQLVESGGGLVRPGGSLRLSCAASGFTFSGYSINWVRQAPGKGLEWVSSISSSSNYIYYADSVKGRFTISRDNAKNSLYLQMNSLRAEDTAVYYCAREGFIAGTTFDAFDIWGQGTMVTVSS
VL: B1 VL with S93G, Y94F
modifications: C-terminal lysine deleted in most of the purified MAb; N-terminal pyroglutamate in a part of it; biotinylated with NHS LC biotin for the FACS of Table VI
notes: Recombinant, CHO-expressed, human IgG1 / kappa; variable regions from hybridoma v62-1b21; ATCC PTA-121831; also called cHv62-1b21.1

- binding result [26]: binds
B3: v62-1b21 (hybridoma MAb) (antibody, V domains shown)
VH: B2 VH
VL: B1 VL with S93G, Y94F
notes: also called AGS62.21; v62.21

- IC50 (read off the curve) [27]: ~10 ng/mL
B4: human FLT3 ligand (ligand, UniProt P49771 27-185, looked up)
chain: TQDCSFQHSPISSDFAVKIRELSDYLLQDYPVTVASNLQDEELCGGLWRLVLAQRWMERLKTVAGSKMQGLLERVNTEIHFVTKCAFQPPPSCLRFVQTNISRLLQETSEQLVALKPWITRQNFSRCLELQCQPDSSTLPPPWSPRPLEATAPTAPQPP
modifications: biotinylated (Sulfo-NHS-LC-Biotin) in the Luminex assay
notes: later experiments say human FLT3 ligand; Treated as one molecule; also called hFL
